Tests used:
[1] = molecular target: T1, bovine serum albumin (Fraction V, Fisher BP1600) (bovine, UniProt P02769 25-607); assay: polyreactivity ELISA
T1 construct: also called BSA

[2] = molecular target: KD peptide (NS4A peptide 2), BSA conjugated; assay: ELISA
[3] = molecular target: multiple related peptides of hepacivirus C NS4A (animal virus peptide array); assay: animal virus peptide array, 2.5 ug/ml
[4] = molecular target: integral membrane protein 2B (ITM2B) (human, UniProt Q9Y287 1-266); assay: HuProt v4.0 human proteome array, 1 ug/ml
Chain of integral membrane protein 2B (ITM2B) (Q9Y287 whole entry): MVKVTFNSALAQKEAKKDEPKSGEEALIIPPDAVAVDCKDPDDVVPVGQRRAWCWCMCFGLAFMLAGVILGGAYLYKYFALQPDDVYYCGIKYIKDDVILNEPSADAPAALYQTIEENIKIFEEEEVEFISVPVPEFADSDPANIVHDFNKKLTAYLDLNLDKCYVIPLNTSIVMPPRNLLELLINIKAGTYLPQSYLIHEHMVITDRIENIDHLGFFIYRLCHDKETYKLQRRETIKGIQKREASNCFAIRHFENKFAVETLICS

T1 sequence (P02769 25-607 limits assumed): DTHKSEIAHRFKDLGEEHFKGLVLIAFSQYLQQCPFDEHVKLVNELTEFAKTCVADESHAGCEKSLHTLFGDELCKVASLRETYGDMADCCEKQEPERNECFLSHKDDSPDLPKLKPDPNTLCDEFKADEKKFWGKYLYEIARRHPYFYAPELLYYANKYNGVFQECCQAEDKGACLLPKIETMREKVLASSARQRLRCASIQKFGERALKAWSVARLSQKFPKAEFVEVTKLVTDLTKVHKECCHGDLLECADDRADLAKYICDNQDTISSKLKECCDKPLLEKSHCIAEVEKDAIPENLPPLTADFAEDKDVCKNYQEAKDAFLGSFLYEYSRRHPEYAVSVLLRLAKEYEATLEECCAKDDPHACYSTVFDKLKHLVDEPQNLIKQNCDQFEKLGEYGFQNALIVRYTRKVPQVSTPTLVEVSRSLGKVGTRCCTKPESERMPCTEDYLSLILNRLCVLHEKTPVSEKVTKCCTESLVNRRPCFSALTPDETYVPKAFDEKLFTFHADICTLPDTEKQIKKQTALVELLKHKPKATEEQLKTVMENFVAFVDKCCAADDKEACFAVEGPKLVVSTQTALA

Binder	binding result [1]	also measured
KD6-1A10 (antibody, V domains shown) VH: VQLVESGGGVVQPGRSLRLSCAASGFSFSNYFMHWVRHVPGKGLEWLATIWYDGSDKYYVDSVKGRFTISRDNSKNTLYLQMGSLRAEDTAMYYCAKGRQRGYYYDMGGYYVFDSWGQGTLVTVSS VL: QSVLTQPPSASGTPGQGVTISCSGSRSNIGSNTVNWYRQFPGTAPKLLIYKNNQRPSGVPDRFSGSKPGTSAYLAITGLQSDDQADYYCAAWDDSLKGVVFGGGTKLTVL	no binding (tested: 10, 1, and 0.1 ug/ml)	
KD9-1B5 (antibody, V domains shown) VH: QVQLQESGPGLVKPSETLSLTCTVSGGSINSYYWSWIRQPPGKGLEWIGYIYYSGSTNYNPSLKSRVTISVDTSKNQFSLRLSSVTAADTAVYYCARHPTAGTSYGMDVWGQGTTVTV VL: QSALTQPASESGSPGQSITISCTGTTSDVGSYNLVSWYQQHPGKAPKLMIYEGTKRPSGVSNRFSGSKSGNTASLTISGLQPEDEADYYCCSYAGTTTYVFGTGTKVTVL		OD450 (KD peptide minus scrambled peptide) [2]: < 0.04 OD
KD4-2H4 (rabbit version) (antibody, V domains shown, also called Rabbit KD4-2H4) VH: EVQLVESGGGLVQPGGSLRLSCAASGFTFSSYWMYWVRQAPGKGLVWVSRINSDGSTTNYADSVKGRFTISRDNAKNTLYLQMNSLRAEDTAVYFCARYAHLGIGWYFDLWGRGTLVTVSS VL: QSALTQPRSVSGSPGQSVTISCTGTSSDVGGYNYVSWYQQHPGKAPKLMIYDVSKRPSGVPDRFSGSKSGNTASLTISGLQAEDEADYYCCSYAGSYTLLFGGGTKLTVL	no binding (tested: 10, 1, and 0.1 ug/ml)	spot intensity (fluorescence units) (fluorescence units) [3]: > 200
KD4-2H4 (human version) (antibody, V domains shown, also called human KD4-2H4) VH: EVQLVESGGGLVQPGGSLRLSCAASGFTFSSYWMYWVRQAPGKGLVWVSRINSDGSTTNYADSVKGRFTISRDNAKNTLYLQMNSLRAEDTAVYFCARYAHLGIGWYFDLWGRGTLVTVSS VL: QSALTQPRSVSGSPGQSVTISCTGTSSDVGGYNYVSWYQQHPGKAPKLMIYDVSKRPSGVPDRFSGSKSGNTASLTISGLQAEDEADYYCCSYAGSYTLLFGGGTKLTVL		binding result [4]: binds
KD6-2B2 (antibody, V domains shown, also called rabbit KD6-2B2; KD36-2B32) VH: EVQLVESGGGVAQPGTSLRLSCEASGFTFRDYAMRWVRQAPGKGLEWVAFIWNDGSKKYYTDSVRGRFTISRDNSKNMLYLQMDSLRAEDTALYYCARKMSEDDAFDLWGQGTMVTV VL: DIQMTQSPSTLSASAGDRVTITCRASQSVSKYLAWYQQKPGKAPRLLIYKASSLQSGVPSRFSGSGSGTEFTLTISSLQPDDFATYYCQHYNTYPSWTFGQGTKVEIK	no binding (tested: 10, 1, and 0.1 ug/ml)	
KD8-1B10 (antibody, V domains shown) VH: EVQLVESGGGLVQPGGSLRLSCAASGFTFSDHYMDWVRQVPRKGLEWVGRARNKANSYTTEYAASVKGRFTISRDDSKNSLYLQMNSLKSEDTAVYYCARFLLIADAFDIWGQGTMVTV VL: DIQMTQSPSSLSASLGDRVTITCRASQGIRHDLGWYQQKPGKAPKLLIYGASTLQTGVPSRFSGSGSGTDFTLTISSLQPEDFATYYCLQKYNYPLTFGGGTKVEIK	no binding (tested: 10, 1, and 0.1 ug/ml)	
KD8-1D4 (antibody, V domains shown) VH: EVQLVESGGGLVQPGGSLRLSCAASGFTFSDYYMDWVRQAPGKGLEWVGRTRNKANSYTTEYAASVKGRFTISRDDSKNSLYLQMNSLKTEDTAVYYCARFLLVADAFDIWGQGTMVTV VL: DIQMTQSPSSLSASVGDRVTITCRASQGIRNDLGWYQQKPGKAPKLLIYGASSLQSGVPSRFSGSGSGTDFTLTISSLQPEDIATYYCLQEYTYPLTFGGGTKVEIK	no binding (tested: 10, 1, and 0.1 ug/ml)	
